T1: human CD79B protein on the surface of DoHH2 cells (human, UniProt P40259 29-229)
T1 construct: whole, on cells; endogenous CD79B on a B-cell lymphoma line
T1 sequence (looked up): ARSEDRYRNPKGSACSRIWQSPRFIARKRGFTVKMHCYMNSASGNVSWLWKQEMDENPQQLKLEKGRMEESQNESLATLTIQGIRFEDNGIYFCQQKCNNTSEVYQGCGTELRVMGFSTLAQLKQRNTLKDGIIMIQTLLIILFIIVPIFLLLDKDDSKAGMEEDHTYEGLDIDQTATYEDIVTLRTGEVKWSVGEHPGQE

T2: human CD79B antigen (coating antigen of the ELISA, construct not stated) (human, UniProt P40259 29-159)
T2 sequence (looked up): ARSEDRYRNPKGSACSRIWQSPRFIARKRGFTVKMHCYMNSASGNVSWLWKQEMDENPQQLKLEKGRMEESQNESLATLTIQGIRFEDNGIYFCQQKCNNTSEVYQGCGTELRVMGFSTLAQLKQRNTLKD

T3: fusion protein of human CD79B extracellular domain (ECD) and His tag (human CD79B ECD-His) (human, UniProt P40259 29-159)
T3 construct: also called human CD79B-His; Human CD79B-His protein
T3 sequence: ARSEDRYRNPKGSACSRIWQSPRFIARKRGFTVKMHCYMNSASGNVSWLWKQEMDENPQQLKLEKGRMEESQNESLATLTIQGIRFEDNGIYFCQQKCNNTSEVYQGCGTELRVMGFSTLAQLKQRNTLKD

B1: SN8 (antibody, V domains shown)
VH: EVQLVESGGGLVQPGGSLRLSCAASGYTFSSYWIEWVRQAPGKGLEWIGEILPGGGDTNYNEIFKGRATFSADTSKNTAYLQMNSLRAEDTAVYYCTRRVPIRLDYWGQGTLVTVSS
VL: DIQLTQSPSSLSASVGDRVTITCKASQSVDYEGDSFLNWYQQKPGKAPKLLIYAASNLESGVPSRFSGSGSGTDFTLTISSLQPEDFATYYCQQSNEDPLTFGQGTKVEIKR
B2: murine hybridoma monoclonal antibody mAb015 (antibody, V domains shown)
VH: QVQLQQSGAELARPGASVKLSCKASGSSFTSYGINWVKQRTGQGLEWIGEIFPRSGNTYYNEKFEGKATLTADKSSSTAYMELRSLTSEDSAVYFCAKGDLGDFDYWGQGTTLTVSS
VL: DFLMTQTPLSLPVRLGDQASISCRSSQSIVHSDGNTYFEWYLQKPGQSPKLLIYKVSNRFSGVPDRFSGSGSGTDFTLKISRVEAEDLGVYYCFQGSHVPWTFGGGTKLEIK
notes: murine monoclonal antibody from hybridoma; also called 83B2G2
B3: murine hybridoma monoclonal antibody mAb017 (antibody, V domains shown)
VH: QVQLQQSGAELARPGASVKLSCKASGYTFTTYGINWVKQRTGQGLEWIGEIYPRSGNIYYNEKFKGKATLTADKSSSTAYMELRSLTSEDSAVYFCARGSDYDGDFAYWGQGTLVTVSA
VL: DVLMTQTPLSLPVSLGDQASISCRSSQSIVHHDGNTYLEWYLQKPGQSPKLLIYKVSNRFSGVPDRFSGSGSGTDFTLKISRVEAEDLGVYYCFQGSHVPWTFGGGTQLEIK
notes: murine monoclonal antibody from hybridoma; also called 86F11F6
B4: murine hybridoma monoclonal antibody mAb016 (antibody, V domains shown)
VH: QVQLQQSGAELARPGASVKLSCKASGYIFTNYGIIWVKQRTGQGLEWIGDIFPGSGNTYYNENFKGKATLTADKSSSTAYMELRSLTSEDSAVYFCSRGELGDFDYWGQGTTLTVSS
VL: VVLMTQTPLSLPVSLGDQASISCRSSQNIVHSDGTTYLEWYLQKPGQSPKLLIYKVSNRFSGVPDRFSGSGSGTDFTLKISRVEAEDLGIYYCFQGSHVPWTFGGGTKLEIK
notes: murine monoclonal antibody from hybridoma; also called 83C2D4
B5: humanized antibody hAb015 (antibody, human IgG1, kappa, V domains shown)
VH: EVQLVQSGAEVKKPGSSVKVSCKASGSSFSSYGINWVKQAPGQGLEWIGEIFPRSGNTYYNEKFEGRATLTADKSTSTAYMELRSLRSEDTAVYYCAKGDLGDFDYWGQGTTVTVSS
VL: DFVMTQTPLSLPVTPGEPASISCRSSQSIVHSDGNTYFEWYLQKPGQSPKLLIYKVSNRFSGVPDRFSGSGSGTDFTLKISRVEAEDVGVYYCFQGSHVPWTFGGGTKVEIKR
B6: humanized antibody hAb017 (antibody, human IgG1, kappa, V domains shown)
VH: EVQLVQSGAEVKKPGASVKVSCKASGYTFTTYGINWVKQAPGQGLEWIGEIYPRSGNIYYNEKFKGKATLTADKSTSTAYMELRSLRSDDTAVYYCARGSDYDGDFAYWGQGTLVTVSS
VL: DVVMTQTPLSLPVTPGEPASISCRSSQSIVHHDGNTYLEWYLQKPGQSPQLLIYKVSNRFSGVPDRFSGSGSGTDFTLKISRVEAEDVGVYYCFQGSHVPWTFGGGTKVEIKR

Legend:
[1] = target: T1, human CD79B protein on the surface of …; assay: FACS on DOHH2 cells, serial antibody dilutions, FITC secondary antibody, MFI
[2] = target: T1, human CD79B protein on the surface of …; assay: FACS, hybridoma culture supernatant on DoHH2 cells
Description: 4) FACS screening. DoHH2 cell suspensions were centrifuged and the cells were resuspended in PBS containing 0.1% BSA and counted. The cell supernatant to be tested was added. After 60 min of incubation at room temperature, the cells were washed for three times and then anti-mouse IgG Fc-FITC secondary antibody was added. After 30 min of incubation at room temperature in the dark, the cells were washed for three times and gently resuspended in PBS containing 0.1% BSA for detection on the instrument.
(§1) 5) Identification of positive hybridoma clones. After fusion and subclone screening of mouse spleen cells, we obtained a number of specific antibodies against human CD79B antigen. Among them, 17 hybridomas with the best ELISA and FACS binding ability were used for antibody production and purification. The FACS detection results of the culture supernatant of anti-human CD79B hybridoma positive clone cells are shown in Table 2. mIgG was used as a negative control in both ELISA and FACS tests.

[3] = target: T2, human CD79B antigen (coating antigen of …); assay: ELISA, hybridoma culture supernatant on plate coated with antigen 1 µg/mL
Description: 3) ELISA screening. Before the start of the experiment, a 96-well plate was labeled accordingly and coated with an antigen at a concentration of 1 μg/mL, 50 μl per well overnight in a refrigerator at 4° C. The next day, the antigen plate coated the day before was taken out and washed with a plate washer (washing solution: 1×PBST). After washing, the plate was blocked with 1% BSA blocking solution prepared in 1×PBST at 37° C. for 1 h. After washing the plate with 1×PBST washing solution for 3 times, 50 μl of cell supernatant to be tested were added and incubated in a 37° C. incubator for 1 h. After washing the plate with 1×PBST washing solution for 3 times, 100 μl 1:5000 diluted goat-anti-mouse secondary antibody was added and incubated in a 37° C. incubator for 0.5 h. After washing the plate, TMB chromogenic solution A and B were mixed at a 1:1 ratio and then color development was carried out. The development reaction was terminated with 1 N hydrochloric acid after 15 min. The […] at 450 nm were detected on a Spectra Max M5 multi-function plate reader.
as §1

[4] = target: T2, human CD79B antigen (coating antigen of …); assay: ELISA, plate coated with antigen at 1 ug/mL, serial antibody dilutions, OD450
Description: 2) ELISA detection of anti-human CD79B murine monoclonal antibodies. Before the start of the experiment, a 96-well plate was labeled accordingly and coated with an antigen at a concentration of 1 μg/mL, 50 μl per well overnight in a refrigerator at 4° C. The next day, the antigen plate coated the day before was taken out and washed with a plate washer (washing solution: 1×PBST) for once. After washing, the plate was blocked with 1% BSA blocking solution prepared in 1×PBST at 37° C. for 1 h. After washing the plate with 1×PBST washing solution for 3 times, 50 μl of antibody, diluted to 100 nM (by 1:10), were added and incubated in a 37° C. incubator for 1 h. After washing the plate with ×PBST washing solution for 3 times, 100 μl 1:5000 diluted goat-anti-mouse secondary antibody was added and incubated in a 37° C. incubator for 0.5 h. After washing the plate, TMB chromogenic solution A and B were mixed at a 1:1 ratio and then color development was carried out. The development reaction was terminated with 1 N hydrochloric acid after 15 min. The […] at 450 nm were detected on a Spectra Max M5 multi-function plate reader. Among them, three anti-human CD79B murine monoclonal antibodies had the strongest ELISA binding ability, including mAb015, mAb016 and mAb017 (see FIG. 7 for specific data). Among them, hIgG1 was the negative control antibody and SN8 was the positive control antibody. SN8 is the antibody used in the antibody-conjugated drug polatuzumab vedotin developed by Roche Pharmaceuticals (for the sequence, refer to the source of the sequence: US20170362318A). At present, polatuzumab vedotin has been approved by the FDA for marketing. It can be seen from the results that in the ELISA experiment, the binding ability of the three anti-human CD79B murine monoclonal antibodies mAb015, mAb016 and mAb017 selected preferably by the present disclosure was similar to that of SN8.

[5] = target: T1, human CD79B protein on the surface of …; assay: FACS on DOHH2 cells, serial antibody dilutions, anti-mouse IgG Fc-FITC secondary antibody, MFI
Description: 3) FACS detection of anti-human CD79B murine monoclonal antibodies. After centrifugation of the DOHH2 cell suspension, the cells were resuspended in PBS containing 0.1% BSA and counted. 100 μl of antibody diluted to 100 nM (by 1:10) was added and incubated for 1 h at room temperature. After washing the cells for three times, anti-mouse IgG Fc-FITC secondary antibody was added. After 30 min of incubation at room temperature in the dark, the cells were washed for three times and gently resuspended in PBS containing 0.1% BSA for testing on an instrument. Among them, three anti-human CD79B murine monoclonal antibodies had the strongest FACS binding ability, including mAb015, mAb016 and mAb017 (see FIG. 8 for specific data). Among them, hIgG1 was the negative control antibody and SN8 was the positive control antibody. It can be known from the results that in the FACS experiment, the binding ability of the three anti-human CD79B murine monoclonal antibodies mAb015, mAb016 and mAb017 selected preferably by the present disclosure was better than that of SN8.

[6] = target: T3, fusion protein of human CD79B …; assay: SPR (Biacore 8K; by Example 2 human CD79B-His immobilised on CM5 chip, antibody flowed over)

Binder | EC50 (read off the curve) [1] [µg/mL] | Mean fluorescence values [2] [mean fluorescence] | OD450 [3] [OD450] | EC50 (read off the curve) [4] [nM] | EC50 (read off the curve) [5] [µg/mL] | Kd [6] [nM]
B1 | ~0.09 |  |  |  |  | 
B2 |  | 10000 | 3.41 | ~0.1 | ~0.02 | 
B3 |  | 8130 | 3.8 | ~0.1 | ~0.02 | 
B4 |  | 9990 | 3.46 | ~0.1 | ~0.02 | 
B5 |  |  |  |  |  | 0.43
B6 |  |  |  |  |  | 3.77

— patent publication US20220162304A1 (TUOJIE BIOTECH SHANGHAI, published 2022)
